Laboratory results reported in paper PMC12319226 (Frontiers in Bioinformatics, 2025).
Residue numbers refer to the chain shown, from its start. Several values for one entry are separate records, joined by “and”; a condition that tells them apart may be missing. Equal values may be shown once.

T1: fHbp m002421 (Neisseria meningitidis, designed fHbp …, point mutant)
T1 chain: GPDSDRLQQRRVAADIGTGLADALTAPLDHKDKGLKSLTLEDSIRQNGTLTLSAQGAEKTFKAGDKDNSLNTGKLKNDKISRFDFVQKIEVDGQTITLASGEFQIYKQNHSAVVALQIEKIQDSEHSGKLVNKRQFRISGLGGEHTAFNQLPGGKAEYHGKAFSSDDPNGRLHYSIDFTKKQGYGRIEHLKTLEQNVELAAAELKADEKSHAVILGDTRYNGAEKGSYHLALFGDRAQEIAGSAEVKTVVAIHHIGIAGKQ

T2: fHbp m001935 (Neisseria meningitidis; fHbp …, chimera)
T2 chain: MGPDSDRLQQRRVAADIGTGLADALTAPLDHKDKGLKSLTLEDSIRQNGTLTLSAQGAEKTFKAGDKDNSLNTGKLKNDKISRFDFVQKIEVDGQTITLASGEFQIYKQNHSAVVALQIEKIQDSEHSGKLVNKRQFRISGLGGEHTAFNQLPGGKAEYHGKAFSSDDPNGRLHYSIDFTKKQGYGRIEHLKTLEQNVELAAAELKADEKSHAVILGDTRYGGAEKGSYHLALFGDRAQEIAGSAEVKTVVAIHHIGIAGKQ

T3: fHbp m001929 (Neisseria meningitidis; fHbp …, chimera)
T3 chain: T2 chain with V251E

T4: fHbp m002392 (Neisseria meningitidis; fHbp …, chimera)
T4 chain: T2 chain with G222N, T249S, A252G

T5: fHbp m002389 (Neisseria meningitidis; fHbp …, chimera)
T5 chain: T2 chain with G222N, T249S, V251N, A252G

T6: fHbp m001932 (Neisseria meningitidis; fHbp …, chimera)
T6 chain: T2 chain with V251N

T7: fHbp m001928 (Neisseria meningitidis; fHbp …, chimera)
T7 chain: T2 chain with V251E, A252S

T8: fHbp mutant 0021 (Neisseria meningitidis, fHbp v3.28 …, point mutant)
T8 chain: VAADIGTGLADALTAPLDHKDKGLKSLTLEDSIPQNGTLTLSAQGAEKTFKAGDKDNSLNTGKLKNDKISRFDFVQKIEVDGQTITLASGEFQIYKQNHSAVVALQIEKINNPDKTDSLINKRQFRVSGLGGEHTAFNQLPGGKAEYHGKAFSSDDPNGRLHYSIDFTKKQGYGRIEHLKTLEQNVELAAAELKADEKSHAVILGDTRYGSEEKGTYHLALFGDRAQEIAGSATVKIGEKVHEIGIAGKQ

B1: chimeric antibody h12C1 (antibody, V domains shown)
VH: QVQLQESGPELVKPGASVKISCKASGYSFSDYNMSWVKQSNGKSLEWIGIIDPKYGTINYNQKFKGKATLTVDQASSTAYMQLNSLTSEDSAVYYCVRDYYGSSYFDYWGQGTTLTVSS
VL: DIVLTQSPSSIYASLGERVTLTCKASQDIHNYLNWFQQKPGKSPKTLIYRANRLVDGVPSRFSGGGSGQDYSLTISSLEFEDIGIYYCLQYDEFPPTFGGGTRLEIK
notes: also called humanized 12C1; source: Expi293, purified (MabSelect SuRe, SEC); copies: 2 + 2
B2: chimeric antibody hJAR5 (antibody, V domains shown)
VH: QVQMQQPGAELVKPGASVKLSCKASGYTFISYWMHWVKQRPGRGLEWIGRIAPDTGIIYYNEKFKNKATLTVDTPSSTAYMQLNSLTSEDSAVYYCARYLKYDGSTYRFDYWGQGTTLTVSS
VL: DIVMTQAAPSVPVTPGESVSISCRSSKSLLHSNGNTYLFWFLQRPGQSPQLLIYRMSNLASGVPDRFSGSGSGTSFTLRISRVEAEDVGVYYCMQHLEYPYTFGGGTKLEIK
notes: also called hJAR5-2; humanized JAR5; source: Expi293, purified (MabSelect SuRe, SEC); copies: 2 + 2
B3: mAb 4B3 (human) (antibody, V domains shown)
VH: QVQLVQSGGGLVKPGGSLRLSCAASGFPFSSYYMSWIRQAPGKGLEWVSDINNSGNVKEYADFVKGRLTISRDNVKNSMYLHMNSLRVEDTAVYYCARNRGRFDVWGQGTLVTVSA
VL: EIVMTQSPGTLSLSPGETATLSCRASQMISSPFLAWYQQRRGQAPRLLIYGASTRATDTPDRFRGSGSGTDFILTISRLEPEDFAVYYCQYYDDSPFTFGQGTKLEIK
notes: also called 4B3-2; source: Expi293, purified (MabSelect SuRe, SEC); copies: 2 + 2
B4: mAb 1E6 (human) (antibody, V domains shown)
VH: EVQLVQSGAEVKKPGSSVKVSCKASGGTVIDYPITWVRQAPGQGLEWVGGFVPLFRTSNYGQKFQGRVTITADKSTSTASMELNSLTSEDTAIYYCARGDTAMGPFDYWGQGTLVTVSS
VL: SYVLTQPPSLSVAPGKTATLTCGGNNIAGKTVHWYQQRPGQAPVLVISYDSDRPSGIPERFSGSNSANTATLTISRVEAGDEADYYCQVWDRNSDHWVFGGGTKLTVL
notes: source: Expi293, purified (MabSelect SuRe, SEC); copies: 2 + 2

Biological target: T1, fHbp m002421
Assay: BLI
Conditions: both partners purified

Row | Binder | Kd | koff | kon
1 | B1 | 33.8 nM | 0.00845 s⁻¹ | 250000 ± 2560 M⁻¹ s⁻¹
2 | B2 | 0.193 nM | – | –
3 | B3 | 1.25 nM | 0.00101 s⁻¹ | 803900 ± 3510 M⁻¹ s⁻¹
4 | B4 | 0.131 nM | 5.56e-05 s⁻¹ | 424400 ± 3050 M⁻¹ s⁻¹

Biological target: T2, fHbp m001935
Assay: BLI
Conditions: both partners purified

Row | Binder | Kd | koff | kon
5 | B1 | 18.9 nM | 0.00626 s⁻¹ | 330500 ± 3080 M⁻¹ s⁻¹
6 | B2 | 0.401 nM | – | –
7 | B3 | 2.34 nM | 0.000973 s⁻¹ | 415300 ± 2100 M⁻¹ s⁻¹
8 | B4 | 0.131 nM | 5.4e-05 s⁻¹ | 412500 ± 2300 M⁻¹ s⁻¹

Biological target: T3, fHbp m001929
Assay: BLI
Conditions: both partners purified

Row | Binder | Kd | koff | kon
9 | B1 | 45.9 nM | 0.00802 s⁻¹ | 175000 ± 4560 M⁻¹ s⁻¹
10 | B2 | 0.347 nM | – | –
11 | B3 | 2.63 nM | 0.000635 s⁻¹ | 242000 ± 2590 M⁻¹ s⁻¹
12 | B4 | 0.235 nM | 9.11e-05 s⁻¹ | 387500 ± 2190 M⁻¹ s⁻¹

Biological target: T4, fHbp m002392
Assay: BLI
Conditions: both partners purified

Row | Binder | Kd | koff | kon
13 | B1 | 0.892 nM | 0.000212 s⁻¹ | 237100 ± 1550 M⁻¹ s⁻¹
14 | B2 | 0.711 nM and 0.689 nM | – | –
15 | B3 | 2.95 nM | 0.00106 s⁻¹ | 359400 ± 1640 M⁻¹ s⁻¹
16 | B4 | 0.515 nM | 0.000157 s⁻¹ | 305400 ± 1880 M⁻¹ s⁻¹

Biological target: T5, fHbp m002389
Assay: BLI
Conditions: both partners purified

Row | Binder | Kd | koff | kon
17 | B1 | 1.16 nM | 0.000257 s⁻¹ | 220700 ± 1060 M⁻¹ s⁻¹
18 | B2 | 0.772 nM | – | –
19 | B3 | 4.01 nM and 3.22 nM | 0.000912 s⁻¹ and 0.00101 s⁻¹ | 227000 M⁻¹ s⁻¹ and 315000 M⁻¹ s⁻¹
20 | B4 | 0.818 nM | 0.000272 s⁻¹ | 332200 ± 1430 M⁻¹ s⁻¹

Biological target: T6, fHbp m001932
Assay: BLI
Conditions: both partners purified

Row | Binder | Kd | koff | kon
21 | B1 | 35.2 nM | 0.0057 s⁻¹ | 161900 ± 1160 M⁻¹ s⁻¹
22 | B2 | 3.73 nM | – | –
23 | B3 | 0.814 nM | 0.000321 s⁻¹ | 394600 ± 1740 M⁻¹ s⁻¹
24 | B4 | 0.303 nM | 0.000105 s⁻¹ | 347000 ± 1890 M⁻¹ s⁻¹

Biological target: T7, fHbp m001928
Assay: BLI
Conditions: both partners purified

Row | Binder | Kd | koff | kon
25 | B1 | 55.3 nM | 0.0146 s⁻¹ | 264000 ± 5240 M⁻¹ s⁻¹
26 | B2 | 0.741 nM | – | –
27 | B3 | 4.25 nM | 0.00106 s⁻¹ | 248300 ± 1560 M⁻¹ s⁻¹
28 | B4 | 0.174 nM | 0.000163 s⁻¹ | 937300 ± 2910 M⁻¹ s⁻¹

The binders below were run against T9, factor H binding protein variant 1.1 (Neisseria meningitidis serogroup B …, UniProt Q9JXV4) (assay: BLI). Conditions: both partners purified.
T9 construct: also called fHbp v1.1; v1.1 Control (0001)

Row | Binder | Kd | koff | kon
29 | B3 | 1.33 nM | 0.00103 s⁻¹ | 767900 ± 4960 M⁻¹ s⁻¹
30 | B4 | 3.4 nM | 0.00447 s⁻¹ | 1.32e+06 ± 14800 M⁻¹ s⁻¹

Biological target: T8, fHbp mutant 0021
Assay: BLI
Conditions: both partners purified

Row | Binder | Kd | koff | kon
31 | B3 | 1.82 nM | 0.00084 s⁻¹ | 460100 ± 2250 M⁻¹ s⁻¹
32 | B4 | 0.654 nM | 0.000333 s⁻¹ | 508900 ± 2640 M⁻¹ s⁻¹
